From patent publication US12679878B2, “CRF2 receptor agonists and their use in therapy” (SANOFI, priority 2020, dated 2026)
Read-outs that look alike come from different tables or passages of the source. One block for each molecule: values may come before it. Starred links: 1 amine or outer side, 2 acyl side, 3 side chain; linkers in the order of their positions; H or OH if unused. Non-standard residues stand in square brackets, D forms with d. Residues, ends and D or L forms follow the SMILES beside them. Groups on a side chain read outwards from the residue. No end group written: not given here. *: point of attachment. C18 diacid = O=C(O)CCCCCCCCCCCCCCCCC(=O)*; γGlu = O=C(O)[C@H](CCC(=O)[*:2])N[*:1]; Palmitoyl = CCCCCCCCCCCCCCCC(=O)*; AEEA = NCCOCCOCC(=O)O; Aib = CC(C)(N)C(=O)O

What was measured:
[1] = molecular target: T1, human CRF2α receptor (Homo sapiens, UniProt Q13324); test: cAMP agonism at human CRF2 α receptor in TeloHEAC cells (Example 7); format: cell-based; details: cAMP HTRF, TeloHEAC cells stably expressing human CRF2 α
T1 construct: expressed in transfected cells; host or cells: TeloHEAC
T1 sequence (Q13324 1-411): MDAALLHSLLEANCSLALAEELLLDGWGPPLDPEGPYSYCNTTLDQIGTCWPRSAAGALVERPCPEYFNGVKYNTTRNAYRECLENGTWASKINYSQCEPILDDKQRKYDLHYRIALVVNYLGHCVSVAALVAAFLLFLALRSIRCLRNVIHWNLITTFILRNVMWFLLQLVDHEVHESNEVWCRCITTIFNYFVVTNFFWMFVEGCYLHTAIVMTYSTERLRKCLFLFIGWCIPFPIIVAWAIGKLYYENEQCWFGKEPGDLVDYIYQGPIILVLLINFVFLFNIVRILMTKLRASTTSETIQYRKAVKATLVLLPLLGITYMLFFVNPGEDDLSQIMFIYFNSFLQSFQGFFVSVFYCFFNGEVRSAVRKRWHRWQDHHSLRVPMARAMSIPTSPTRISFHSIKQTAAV
In short: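 Thawed frozen stably transfected cells in HBSS/20 mM HEPES (0% or 0.1% HSA) plus 2 mM IBMX were exposed to compound at 2000 cells/well for 30 min at room temperature. Intracellular cAMP was read by HTRF (665/620 nm ratio) after 1 h lysis; EC50 was derived with 1000 nM urocortin 2 set as 100%.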

[2] = molecular target: T2, CRF1R receptor (Homo sapiens, UniProt P34998); test: cAMP activity at anti-target CRF1R, CHO-K1 cell line clone 2 (Example 19.10); format: cell-based; details: CRF1R CHO-K1 clone 2; for EC50: 0% HSA, read-out: EC50 [nM] 0% HSA; for Emax: 100% = Sauvagine at 100 nM
T2 construct: host or cells: CHO-K1 clone 2
T2 sequence (P34998 24-415): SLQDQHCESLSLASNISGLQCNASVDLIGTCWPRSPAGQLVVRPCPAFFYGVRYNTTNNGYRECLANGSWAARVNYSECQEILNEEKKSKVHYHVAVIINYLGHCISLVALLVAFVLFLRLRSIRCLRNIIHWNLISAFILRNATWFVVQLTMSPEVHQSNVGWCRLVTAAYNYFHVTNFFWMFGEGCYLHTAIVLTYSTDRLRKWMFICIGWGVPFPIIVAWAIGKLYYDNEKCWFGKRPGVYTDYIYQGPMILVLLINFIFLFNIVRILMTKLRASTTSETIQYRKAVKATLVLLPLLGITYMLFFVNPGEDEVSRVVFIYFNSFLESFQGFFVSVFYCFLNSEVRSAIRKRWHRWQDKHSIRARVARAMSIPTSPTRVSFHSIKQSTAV
In short: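 The cAMP read-out used the same protocol as the previous assay, except that Sauvagine at 100 nM set the 100% activation control. Cells were CHO-K1 clone 2 overexpressing CRF1R, cultured in F12 medium with 10% FBS and G418 and stored frozen until use.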

[3] = molecular target: T3, anti-target CRF1R receptor (UniProt P34998 24-415, limits assumed); test: cell-based or functional assay
T3 sequence (looked up): T2 sequence (P34998 24-415)

[4] = 0% HSA, read-out: EC50 [nM], 0% HSA

Molecule: CC[C@H](C)[C@H](N)C(=O)N[C@H](C(=O)N[C@@H](CC(C)C)C(=O)N[C@@H](CO)C(=O)N[C@@H](CC(C)C)C(=O)N[C@@H](CC(=O)O)C(=O)N[C@H](C(=O)N1CCC[C@H]1C(=O)N[C@H](C(=O)N[C@@H](CCCCN)C(=O)N[C@@H](CC(C)C)C(=O)N[C@@H](CCCCNC(=O)COCCOCCNC(=O)COCCOCCNC(=O)CC[C@H](NC(=O)CCCCCCCCCCCCCCCCC(=O)O)C(=O)O)C(=O)N[C@@H](CCC(N)=O)C(=O)N[C@H](C(=O)N[C@@H](CC(C)C)C(=O)N[C@@H](CC(C)C)C(=O)N[C@@H](CCCCN)C(=O)N[C@@H](CCC(N)=O)C(=O)N[C@@H](CCC(=O)O)C(=O)N[C@@H](CCCNC(=N)N)C(=O)N[C@@H](CCC(N)=O)C(=O)N[C@@H](CCCCN)C(=O)N[C@@H](CCCCN)C(=O)NC(C)(C)C(=O)N[C@@H](CCCNC(=N)N)C(=O)N[C@@H](CCC(=O)O)C(=O)N[C@@H](CCC(N)=O)C(=O)N[C@@H](C)C(=O)N[C@@H](CCC(=O)O)C(=O)N[C@H](C(=O)N[C@@H](CC(N)=O)C(=O)N[C@@H](CCCCN)C(=O)N[C@@H](CCCNC(=N)N)C(=O)N[C@H](C(=O)N[C@@H](CC(C)C)C(=O)N[C@@H](CCC(=O)O)C(=O)N[C@@H](CCCNC(=N)N)C(=O)N[C@H](C(N)=O)C(C)C)[C@@H](C)CC)[C@@H](C)O)[C@@H](C)CC)[C@@H](C)CC)C(C)C)C(C)C [compound 152] (H-IVLSLDVPIKLK([AEEA-AEEA-γGlu-C18 diacid])QILLKQERQKK[Aib]REQAETNKRILERV-NH2; N-terminus assumed)
- EC50 [1, 4]: 0.09 nM
- EC50 ([1]; 0.1% HSA, read-out: EC50 [nM], 0.1% HSA): 4.94 nM
- EC50 [2]: > 100 nM
- Emax [2]: 4.9%

Molecule: CC[C@H](C)[C@H](N)C(=O)N[C@H](C(=O)N[C@@H](CC(C)C)C(=O)N[C@@H](CO)C(=O)N[C@@H](CC(C)C)C(=O)N[C@@H](CC(=O)O)C(=O)N[C@H](C(=O)N1CCC[C@H]1C(=O)N[C@H](C(=O)NCC(=O)N[C@@H](CC(C)C)C(=O)N[C@@H](CCCCNC(=O)COCCOCCNC(=O)COCCOCCNC(=O)CC[C@H](NC(=O)CCCCCCCCCCCCCCCCC(=O)O)C(=O)O)C(=O)N[C@@H](CCC(N)=O)C(=O)N[C@H](C(=O)N[C@@H](CC(C)C)C(=O)N[C@@H](CC(C)C)C(=O)N[C@@H](CCCCN)C(=O)N[C@@H](CCC(N)=O)C(=O)N[C@@H](CCC(=O)O)C(=O)N[C@@H](CCCNC(=N)N)C(=O)N[C@@H](CCC(N)=O)C(=O)N[C@@H](CCCCN)C(=O)N[C@@H](CCCCN)C(=O)NC(C)(C)C(=O)N[C@@H](CCCNC(=N)N)C(=O)N[C@@H](CCC(=O)O)C(=O)N[C@@H](CCC(N)=O)C(=O)N[C@@H](C)C(=O)N[C@@H](CCC(=O)O)C(=O)N[C@H](C(=O)N[C@@H](CC(N)=O)C(=O)N[C@@H](C)C(=O)N[C@@H](CCC(N)=O)C(=O)N[C@H](C(=O)N[C@@H](CC(C)C)C(=O)N[C@@H](C)C(=O)N[C@@H](CCC(N)=O)C(=O)N[C@H](C(N)=O)C(C)C)[C@@H](C)CC)[C@@H](C)O)[C@@H](C)CC)[C@@H](C)CC)C(C)C)C(C)C [compound 156] (H-IVLSLDVPIGLK([AEEA-AEEA-γGlu-C18 diacid])QILLKQERQKK[Aib]REQAETNAQILAQV-NH2; N-terminus assumed)
- EC50 [1, 4]: 1.06 nM
- EC50 [2]: > 100 nM
- Emax [2]: 4%

B1: peptide of SEQ ID NO: 4 (peptide)
peptide: IVLSLDVPIGLK([γGlu-Palmitoyl])QKLLKQEKQEKEKQQAETNAKILAQV-NH2
modifications: N-terminus assumed
SMILES: CCCCCCCCCCCCCCCC(=O)N[C@@H](CCC(=O)NCCCC[C@H](NC(=O)[C@H](CC(C)C)NC(=O)CNC(=O)[C@@H](NC(=O)[C@@H]1CCCN1C(=O)[C@@H](NC(=O)[C@H](CC(=O)O)NC(=O)[C@H](CC(C)C)NC(=O)[C@H](CO)NC(=O)[C@H](CC(C)C)NC(=O)[C@@H](NC(=O)[C@@H](N)[C@@H](C)CC)C(C)C)C(C)C)[C@@H](C)CC)C(=O)N[C@@H](CCC(N)=O)C(=O)N[C@@H](CCCCN)C(=O)N[C@@H](CC(C)C)C(=O)N[C@@H](CC(C)C)C(=O)N[C@@H](CCCCN)C(=O)N[C@@H](CCC(N)=O)C(=O)N[C@@H](CCC(=O)O)C(=O)N[C@@H](CCCCN)C(=O)N[C@@H](CCC(N)=O)C(=O)N[C@@H](CCC(=O)O)C(=O)N[C@@H](CCCCN)C(=O)N[C@@H](CCC(=O)O)C(=O)N[C@@H](CCCCN)C(=O)N[C@@H](CCC(N)=O)C(=O)N[C@@H](CCC(N)=O)C(=O)N[C@@H](C)C(=O)N[C@@H](CCC(=O)O)C(=O)N[C@H](C(=O)N[C@@H](CC(N)=O)C(=O)N[C@@H](C)C(=O)N[C@@H](CCCCN)C(=O)N[C@H](C(=O)N[C@@H](CC(C)C)C(=O)N[C@@H](C)C(=O)N[C@@H](CCC(N)=O)C(=O)N[C@H](C(N)=O)C(C)C)[C@@H](C)CC)[C@@H](C)O)C(=O)O
- EC50[nM] 0% HSA (cAMP, CRF1R-overexpression CHO cells) [3]: > 1000 nM
- Emax (%) (cAMP, CRF1R-overexpression CHO cells) [3]: 17.4%

Further lines, results first:

- EC50[nM] 0% HSA (cAMP, CRF1R-overexpression CHO cells) [3]: > 1000 nM
- Emax (%) (cAMP, CRF1R-overexpression CHO cells) [3]: 37.4%
B2: peptide of SEQ ID NO: 5 (peptide)
peptide: IVLSLDVPIGLK([γGlu-Palmitoyl])QKLLKQQRQRKERQQAETNARILARV-NH2
modifications: N-terminus assumed
SMILES: CCCCCCCCCCCCCCCC(=O)N[C@@H](CCC(=O)NCCCC[C@H](NC(=O)[C@H](CC(C)C)NC(=O)CNC(=O)[C@@H](NC(=O)[C@@H]1CCCN1C(=O)[C@@H](NC(=O)[C@H](CC(=O)O)NC(=O)[C@H](CC(C)C)NC(=O)[C@H](CO)NC(=O)[C@H](CC(C)C)NC(=O)[C@@H](NC(=O)[C@@H](N)[C@@H](C)CC)C(C)C)C(C)C)[C@@H](C)CC)C(=O)N[C@@H](CCC(N)=O)C(=O)N[C@@H](CCCCN)C(=O)N[C@@H](CC(C)C)C(=O)N[C@@H](CC(C)C)C(=O)N[C@@H](CCCCN)C(=O)N[C@@H](CCC(N)=O)C(=O)N[C@@H](CCC(N)=O)C(=O)N[C@@H](CCCNC(=N)N)C(=O)N[C@@H](CCC(N)=O)C(=O)N[C@@H](CCCNC(=N)N)C(=O)N[C@@H](CCCCN)C(=O)N[C@@H](CCC(=O)O)C(=O)N[C@@H](CCCNC(=N)N)C(=O)N[C@@H](CCC(N)=O)C(=O)N[C@@H](CCC(N)=O)C(=O)N[C@@H](C)C(=O)N[C@@H](CCC(=O)O)C(=O)N[C@H](C(=O)N[C@@H](CC(N)=O)C(=O)N[C@@H](C)C(=O)N[C@@H](CCCNC(=N)N)C(=O)N[C@H](C(=O)N[C@@H](CC(C)C)C(=O)N[C@@H](C)C(=O)N[C@@H](CCCNC(=N)N)C(=O)N[C@H](C(N)=O)C(C)C)[C@@H](C)CC)[C@@H](C)O)C(=O)O

- EC50[nM] 0% HSA (cAMP, CRF1R-overexpression CHO cells) [3]: 588 nM
- Emax (%) (cAMP, CRF1R-overexpression CHO cells) [3]: 58.6%
Molecule: IVLSLD[dV]PTKLK([γGlu-Palmitoyl])QKLLKQERQRKEREQAEKNARILARV-NH2 (not fully specified; printed as IVLSLDvPTKLK*QKLLKQERQRKEREQAEKNARILARV-NH2) [peptide of SEQ ID NO: 7]

- EC50[nM] 0% HSA (cAMP, CRF1R-overexpression CHO cells) [3]: 830 nM
- Emax (%) (cAMP, CRF1R-overexpression CHO cells) [3]: 47.2%
B3: peptide of SEQ ID NO: 6 (peptide)
peptide: IVLSLDVPIGLK([γGlu-Palmitoyl])QKLLKQQRQRKERQQAEKNARILARV-NH2
modifications: N-terminus assumed
SMILES: CCCCCCCCCCCCCCCC(=O)N[C@@H](CCC(=O)NCCCC[C@H](NC(=O)[C@H](CC(C)C)NC(=O)CNC(=O)[C@@H](NC(=O)[C@@H]1CCCN1C(=O)[C@@H](NC(=O)[C@H](CC(=O)O)NC(=O)[C@H](CC(C)C)NC(=O)[C@H](CO)NC(=O)[C@H](CC(C)C)NC(=O)[C@@H](NC(=O)[C@@H](N)[C@@H](C)CC)C(C)C)C(C)C)[C@@H](C)CC)C(=O)N[C@@H](CCC(N)=O)C(=O)N[C@@H](CCCCN)C(=O)N[C@@H](CC(C)C)C(=O)N[C@@H](CC(C)C)C(=O)N[C@@H](CCCCN)C(=O)N[C@@H](CCC(N)=O)C(=O)N[C@@H](CCC(N)=O)C(=O)N[C@@H](CCCNC(=N)N)C(=O)N[C@@H](CCC(N)=O)C(=O)N[C@@H](CCCNC(=N)N)C(=O)N[C@@H](CCCCN)C(=O)N[C@@H](CCC(=O)O)C(=O)N[C@@H](CCCNC(=N)N)C(=O)N[C@@H](CCC(N)=O)C(=O)N[C@@H](CCC(N)=O)C(=O)N[C@@H](C)C(=O)N[C@@H](CCC(=O)O)C(=O)N[C@@H](CCCCN)C(=O)N[C@@H](CC(N)=O)C(=O)N[C@@H](C)C(=O)N[C@@H](CCCNC(=N)N)C(=O)N[C@H](C(=O)N[C@@H](CC(C)C)C(=O)N[C@@H](C)C(=O)N[C@@H](CCCNC(=N)N)C(=O)N[C@H](C(N)=O)C(C)C)[C@@H](C)CC)C(=O)O
